Test [1] has as its target T1, Beclin 2 (human, full length) (human, UniProt A8MW95 1-431).
T1 construct: All tagged and endogenous human forms are kept under this one id; the form used is named under assay; also called BECN2; Flag-Beclin 2
T1 sequence: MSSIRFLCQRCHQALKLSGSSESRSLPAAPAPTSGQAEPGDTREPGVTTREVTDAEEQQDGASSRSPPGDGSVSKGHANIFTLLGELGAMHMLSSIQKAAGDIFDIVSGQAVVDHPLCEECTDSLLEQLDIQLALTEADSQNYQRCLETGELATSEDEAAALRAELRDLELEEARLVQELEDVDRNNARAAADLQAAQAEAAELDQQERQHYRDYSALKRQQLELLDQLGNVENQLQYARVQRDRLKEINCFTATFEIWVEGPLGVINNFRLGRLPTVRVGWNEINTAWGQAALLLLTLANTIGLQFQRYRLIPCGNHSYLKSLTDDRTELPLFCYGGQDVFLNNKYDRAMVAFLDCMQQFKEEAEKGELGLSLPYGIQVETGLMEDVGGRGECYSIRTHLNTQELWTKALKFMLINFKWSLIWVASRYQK
Nature of the test: co-IP with anti-Flag beads and immunoblot; 293T cells co-transfected with Flag-Beclin 2 and an HA-tagged plasmid (FIG. 8A).
Experimental: The secondary antibody (Veriblot for IP detection reagent HRP) that only recognized native IgG but not denatured IgG was applied for immunoblotting of proteins in immunoprecipitates. For immunoprecipitation of Flag-tagged proteins, cell lysates were incubated with anti-Flag beads (Sigma) at 4° C. overnight. The beads were washed four times with RIPA lysis buffer, and immunoprecipitates were eluted with 2×SDS loading buffer. Immunoblotting was performed by loading the samples on SDS-PAGE gels, conducting electrophoresis, transferring the samples to PVDF membranes (Bio-Rad), and then incubating the membranes with the indicated antibodies. For all immunoblots, the LumiGLO Chemiluminescent Substrate System from KPL (Gaithersburg, MD) was used for protein detection.

For test [2], the target named is T1, Beclin 2 (human, full length). Nature of the test: co-IP with anti-Flag beads and immunoblot; HEK293T cells co-transfected with HA-Beclin 2 and Flag-tagged SNARE or RAB proteins (FIG. 32A). Background: Immunoblotting shows a protein as a band on a membrane.
Experimental: (§1) Whole cell lysates obtained 24 h post-transfection or via ligand stimulation were obtained using RIPA lysis buffer and shook on ice for 15 min. The HEK293T cell lysates were immunoprecipitated with anti-Flag conjugated beads (BioLegend) at 4° C. overnight. […] The beads were washed five times with RIPA lysis buffer, and immunoprecipitates were eluted with 2×SDS loading buffer and subjected to SDS-PAGE gel electrophoresis, followed by immunoblotting. The secondary antibody (Veriblot for IP detection, HRP-conjugated) that only recognized native IgG but not denatured IgG was applied for immunoblotting of endogenous proteins in immunoprecipitates.
For another test, the target named is T2, ATG9A (human) (human, UniProt Q7Z3C6 1-839).
T2 construct: Transmembrane protein; co-IP from RIPA lysates; Tagged and endogenous human forms kept under one id; also called Flag-ATG9A; HA-ATG9A
T2 sequence (looked up): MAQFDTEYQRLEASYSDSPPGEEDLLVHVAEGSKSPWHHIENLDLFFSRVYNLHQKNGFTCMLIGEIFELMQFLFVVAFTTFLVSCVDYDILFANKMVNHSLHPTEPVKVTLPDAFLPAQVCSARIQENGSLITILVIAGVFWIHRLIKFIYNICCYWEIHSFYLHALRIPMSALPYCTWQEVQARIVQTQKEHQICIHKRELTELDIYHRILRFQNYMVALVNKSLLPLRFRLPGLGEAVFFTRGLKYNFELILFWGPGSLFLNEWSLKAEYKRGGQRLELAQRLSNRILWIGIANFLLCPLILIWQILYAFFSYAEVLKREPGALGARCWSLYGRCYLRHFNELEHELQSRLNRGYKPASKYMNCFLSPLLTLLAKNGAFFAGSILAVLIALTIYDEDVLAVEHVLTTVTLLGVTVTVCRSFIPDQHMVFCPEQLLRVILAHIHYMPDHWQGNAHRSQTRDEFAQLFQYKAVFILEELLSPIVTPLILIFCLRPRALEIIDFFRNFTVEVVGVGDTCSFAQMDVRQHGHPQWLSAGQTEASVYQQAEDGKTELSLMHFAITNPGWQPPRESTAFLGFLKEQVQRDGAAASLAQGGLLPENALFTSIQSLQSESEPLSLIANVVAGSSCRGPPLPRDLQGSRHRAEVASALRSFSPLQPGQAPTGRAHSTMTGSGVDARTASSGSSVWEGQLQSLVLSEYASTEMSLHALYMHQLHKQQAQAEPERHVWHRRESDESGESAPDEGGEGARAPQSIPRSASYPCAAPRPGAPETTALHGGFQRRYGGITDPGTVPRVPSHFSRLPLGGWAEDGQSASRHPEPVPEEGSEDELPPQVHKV
Nature of the test: endogenous co-IP; WT and BECN2 KO THP-1 cell lysates immunoprecipitated with ATG9A antibodies, immunoblot (FIG. 32D).

The target of test [3] is T3, ATG9A (mouse, endogenous in BMDMs) (mouse, UniProt Q68FE2 2-839).
T3 construct: Endogenous protein in mouse BMDM lysates
T3 sequence (looked up): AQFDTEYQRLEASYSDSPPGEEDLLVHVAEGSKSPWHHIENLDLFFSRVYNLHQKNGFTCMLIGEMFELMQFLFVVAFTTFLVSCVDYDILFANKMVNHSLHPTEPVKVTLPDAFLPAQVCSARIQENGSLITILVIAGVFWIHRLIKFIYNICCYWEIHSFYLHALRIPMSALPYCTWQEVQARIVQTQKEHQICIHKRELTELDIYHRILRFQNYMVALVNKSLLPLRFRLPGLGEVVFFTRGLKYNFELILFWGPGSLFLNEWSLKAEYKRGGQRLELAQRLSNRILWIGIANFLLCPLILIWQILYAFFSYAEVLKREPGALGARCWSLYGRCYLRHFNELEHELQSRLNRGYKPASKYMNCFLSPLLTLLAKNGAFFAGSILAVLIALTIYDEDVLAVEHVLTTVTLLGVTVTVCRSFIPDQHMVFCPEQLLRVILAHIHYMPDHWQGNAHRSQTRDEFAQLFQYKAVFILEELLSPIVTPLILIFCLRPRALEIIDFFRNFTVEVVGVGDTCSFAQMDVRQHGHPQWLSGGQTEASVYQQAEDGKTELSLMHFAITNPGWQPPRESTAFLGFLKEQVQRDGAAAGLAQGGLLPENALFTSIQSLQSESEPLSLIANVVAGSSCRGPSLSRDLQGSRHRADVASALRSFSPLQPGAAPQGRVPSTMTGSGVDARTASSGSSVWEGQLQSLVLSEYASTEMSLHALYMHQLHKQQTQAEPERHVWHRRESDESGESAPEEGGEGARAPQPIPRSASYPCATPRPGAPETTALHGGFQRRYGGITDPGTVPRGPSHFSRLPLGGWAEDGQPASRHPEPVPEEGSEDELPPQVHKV
Nature of the test: endogenous co-IP; WT and Becn2 KO BMDM lysates (untreated or LPS 3 h) immunoprecipitated with ATG9A antibodies, immunoblot (FIG. 30F).

Experimental for ATG9A (human): as §1

B1: ERK1 (enzyme, UniProt P27361 1-379, looked up)
chain: MAAAAAQGGGGGEPRRTEGVGPGVPGEVEMVKGQPFDVGPRYTQLQYIGEGAYGMVSSAYDHVRKTRVAIKKISPFEHQTYCQRTLREIQILLRFRHENVIGIRDILRASTLEAMRDVYIVQDLMETDLYKLLKSQQLSNDHICYFLYQILRGLKYIHSANVLHRDLKPSNLLINTTCDLKICDFGLARIADPEHDHTGFLTEYVATRWYRAPEIMLNSKGYTKSIDIWSVGCILAEMLSNRPIFPGKHYLDQLNHILGILGSPSQEDLNCIINMKARNYLQSLPSKTKVAWAKLFPKSDSKALDLLDRMLTFNPNKRITVEEALAHPYLEQYYDPTDEPVAEEPFTFAMELDDLPKERLKELIFQETARFQPGVLEAP
notes: also called Mapk3
As to B1, the binding result in test [1] was “no binding”.

B2: SEC22A (other, human, UniProt Q96IW7 1-307, looked up)
chain: MSMILSASVIRVRDGLPLSASTDYEQSTGMQECRKYFKMLSRKLAQLPDRCTLKTGHYNINFISSLGVSYMMLCTENYPNVLAFSFLDELQKEFITTYNMMKTNTAVRPYCFIEFDNFIQRTKQRYNNPRSLSTKINLSDMQTEIKLRPPYQISMCELGSANGVTSAFSVDCKGAGKISSAHQRLEPATLSGIVGFILSLLCGALNLIRGFHAIESLLQSDGDDFNYIIAFFLGTAACLYQCYLLVYYTGWRNVKSFLTFGLICLCNMYLYELRNLWQLFFHVTVGAFVTLQIWLRQAQGKAPDYDV
As to B2, the binding result (in test [2]; with ATG9A (human)) was “binds” in each case.

B3: AIM2 (mouse, endogenous in BMDMs) (other, UniProt Q91VJ1 1-354, looked up)
chain: MESEYREMLLLTGLDHITEEELKRFKYFALTEFQIARSTLDVADRTELADHLIQSAGAASAVTKAINIFQKLNYMHIANALEEKKKEAERKLMTNTKKRGTQKVENRSQAENCSAASATRSDNDFKEQAATEVCPQAKPQKKQMVAEQEAIREDLQKDPLVVTVLKAINPFECETQEGRQEIFHATVATETDFFFVKVLNAQFKDKFIPKRTIKISNYLWHSNFMEVTSSSVVVDVESNHEVPNNVVKRARETPRISKLKIQPCGTIVNGLFKVQKITEEKDRVLYGIHDKTGTMEVLVLGNPSKTKCEEGDKIRLTFFEVSKNGVKIQLKSGPCSFFKVIKAAKPKTDMKSVE
Regarding B3, the binding result in test [3] is “binds”.
